According to PMC5980995, “An allostatic mechanism for M2 pyruvate kinase as an amino-acid sensor” (Biochemical Journal, 2018):
pKd: −log10 of the molar value.

Molecular target: M2 isoenzyme of pyruvate kinase (M2PYK), human, N-terminal His6 tag (human) (UniProt P14618)
Test: SEC; analytical gel chromatography, Superdex 200 PC 3.2/30, 0.1 ml/min; protein diluted from 20 mg/ml to 0.1 mg/ml and incubated up to 12 h (overnight) at room temperature in PBS-CM pH 7.4, without or with 10 mM serine, phenylalanine, alanine or tryptophan; apparent constant, tetramer to monomers

Chain of M2 isoenzyme of pyruvate kinase (M2PYK), human, N-terminal His6 tag, P14618 1-531 (enzyme; other documents disagree on this pair) (P14618 whole entry): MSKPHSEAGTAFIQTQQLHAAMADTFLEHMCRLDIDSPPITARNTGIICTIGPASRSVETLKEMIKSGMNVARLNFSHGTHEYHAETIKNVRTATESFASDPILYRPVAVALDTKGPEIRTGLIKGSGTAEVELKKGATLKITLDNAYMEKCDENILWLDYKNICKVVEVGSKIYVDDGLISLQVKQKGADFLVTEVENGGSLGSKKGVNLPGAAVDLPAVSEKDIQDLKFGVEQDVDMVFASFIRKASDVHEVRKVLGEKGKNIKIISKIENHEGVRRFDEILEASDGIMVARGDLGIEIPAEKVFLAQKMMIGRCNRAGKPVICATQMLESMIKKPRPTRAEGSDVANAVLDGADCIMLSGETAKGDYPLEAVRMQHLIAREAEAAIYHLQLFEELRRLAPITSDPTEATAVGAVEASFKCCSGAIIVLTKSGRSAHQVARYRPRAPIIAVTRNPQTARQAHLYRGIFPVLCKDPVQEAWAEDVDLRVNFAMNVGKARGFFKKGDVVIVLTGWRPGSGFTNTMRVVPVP

- pKd: 6.05
Substance: M2 isoenzyme of pyruvate kinase (M2PYK), human, N-terminal His6 tag, P14618 1-531 (enzyme; other documents disagree on this pair)
